Legend:
[1] = molecular target: T1, Presegetalin A1[14,32]G14A
T1 chain: AVPVWAFQAKDVENASAPV

Presegetalin A1[14,19] = molecular target: T2, Presegetalin A1[14,19]
T2 chain: GVPVWA

[2] = molecular target: T3, Presegetalin A1[14,32] P16p W18A
T3 chain: GVPVAAFQAKDVENASAPV

Presegetalin A1[14,32] = molecular target: T4, Presegetalin A1[14,32]
T4 chain: GVPVWAFQAKDVENASAPV

Presegetalin G1[14,31] = molecular target: T5, Presegetalin G1[14,31]
T5 chain: GVKYAFQPKDSENASAPV

[3] = molecular target: T6, Presegetalin A1[14,32]E26A
T6 chain: GVPVWAFQAKDVANASAPV

[4] = molecular target: T7, Presegetalin A1[14,32]V17A
T7 chain: GVPAWAFQAKDVENASAPV

[5] = molecular target: T8, Presegetalin A1[14,32] P16p W18a
T8 chain: GVPVAAFQAKDVENASAPV

[6] = molecular target: T9, Presegetalin A1[14,32]W18w
T9 chain: GVPVWAFQAKDVENASAPV

[7] = molecular target: T10, Presegetalin A1[14,32]P16A
T10 chain: GVAVWAFQAKDVENASAPV

[8] = molecular target: T11, Presegetalin A1[14,32]A19a
T11 chain: GVPVWAFQAKDVENASAPV

B1: Saponaria vaccaria PCY1 (recombinant, N-terminal His6-tag, expressed in E. coli from pCB008) (protein)
chain: MATSGFSKPLHYPPVRRDETVVDDYFGVKVADPYRWLEDPNSEETKEFVDNQEKLANSVLEECELIDKFKQKIIDFVNFPRCGVPFRRANKYFHFYNSGLQAQNVFQMQDDLDGKPEVLYDPNLREGGRSGLSLYSVSEDAKYFAFGIHSGLTEWVTIKILKTEDRSYLPDTLEWVKFSPAIWTHDNKGFFYCPYPPLKEGEDHMTRSAVNQEARYHFLGTDQSEDILLWRDLENPAHHLKCQITDDGKYFLLYILDGCDDANKVYCLDLTKLPNGLESFRGREDSAPFMKLIDSFDASYTAIANDGSVFTFQTNKDAPRKKLVRVDLNNPSVWTDLVPESKKDLLESAHAVNENQLILRYLSDVKHVLEIRDLESGALQHRLPIDIGSVDGITARRRDSVVFFKFTSILTPGIVYQCDLKNDPTQLKIFRESVVPDFDRSEFEVKQVFVPSKDGTKIPIFIAARKGISLDGSHPCEMHGYGGFGINMMPTFSASRIVFLKHLGGVFCLANIRGGGEYGEEWHKAGFRDKKQNVFDDFISAAEYLISSGYTKARRVAIEGGSNGGLLVAACINQRPDLFGCAEANCGVMDMLRFHKFTLGYLWTGDYGCSDKEEEFKWLIKYSPIHNVRRPWEQPGNEETQYPATMILTADHDDRVVPLHSFKLLATMQHVLCTSLEDSPQKNPIIARIQRKAAHYGRATMTQIAEVADRYGFMAKALEAPWID
CP (cyclic peptide product detected by LC/MS) [1]: + | LP (linear peptide product detected by LC/MS) [1]: + | linear peptide product in LC/MS [1]: the highest amount of linear peptide product was detected with No. 7 | relative intensity of cyclic peptide product in LC/MS [1]: makes less product (cyclic peptide) with the substitution of glycine to alanine at the first position in segetalin A (No. 7) than with No. 8 to 11 | CP (cyclic peptide product detected by LC/MS) (Presegetalin A1[14,19]): - | CP (cyclic peptide product detected by LC/MS) [2]: + | LP (linear peptide product detected by LC/MS) [2]: - | CP (cyclic peptide product detected by LC/MS) (Presegetalin A1[14,32]): + | LP (linear peptide product detected by LC/MS) (Presegetalin A1[14,32]): + | PCY1 activity (total amount of segetalin A produced) (Presegetalin A1[14,32]): 3 nmol/mg of protein/min | formation of segetalin A and linear segetalin A (LC/MS) (Presegetalin A1[14,32]): purified PCY1 showed the formation of segetalin A and linear segetalin A in the presence of presegetalin A1[14,32] | CP (cyclic peptide product detected by LC/MS) (Presegetalin G1[14,31]): + | LP (linear peptide product detected by LC/MS) (Presegetalin G1[14,31]): - | CP (cyclic peptide product detected by LC/MS) [3]: + | LP (linear peptide product detected by LC/MS) [3]: + | linear segetalin A production relative to WT substrate [3]: showed a relative increase in production of linear segetalin A | segetalin A production relative to WT substrate [3]: substitutions at positions 25, 26 and 29 (No. 18, 19 and 22) yielded relatively higher amounts of segetalin A than that produced from WT substrate | CP (cyclic peptide product detected by LC/MS) [4]: + | LP (linear peptide product detected by LC/MS) [4]: + | CP (cyclic peptide product detected by LC/MS) [5]: + | LP (linear peptide product detected by LC/MS) [5]: - | CP (cyclic peptide product detected by LC/MS) [6]: + | LP (linear peptide product detected by LC/MS) [6]: + | conversion to cyclic peptide (LC/MS) [6]: the W18w mutant of presegetalin A1 was apparently relatively weakly converted to cyclic peptide | CP (cyclic peptide product detected by LC/MS) [7]: + | LP (linear peptide product detected by LC/MS) [7]: + | CP (cyclic peptide product detected by LC/MS) [8]: - | LP (linear peptide product detected by LC/MS) [8]: -

Reference: patent US20140363844
